Data reported in the Immune Epitope Database (IEDB).
One block for each sequence: values may come before it.

Key:
HLA-A*03:01 [1] = assay: IEDB peptide-MHC binding, purified MHC/competitive/fluorescence; filed as Kd, often an IC50 or EC50 that approximates it; ≥ and ≤ were set here for values at or beyond the usual limits of such assays
HLA-A*24:02 = assay: IEDB peptide-MHC binding, purified MHC/competitive/fluorescence; ≥ and ≤ were set here for values at or beyond the usual limits of such assays
HLA-A*68:02 = assay: IEDB peptide-MHC binding, purified MHC/competitive/radioactivity; filed as Kd, often an IC50 or EC50 that approximates it; ≥ and ≤ were set here for values at or beyond the usual limits of such assays
HLA-B*18:01 = assay: as above
HLA-B*40:01 [2] = assay: as above
HLA-B*40:02 = assay: as above
HLA-B*44:02 [3] = assay: as above
HLA-B*44:03 = assay: as above
HLA-B*45:01 = assay: as above
HLA-A*01:01 = assay: IEDB peptide-MHC binding, purified MHC/direct/fluorescence; filed as Kd, often an IC50 or EC50 that approximates it; ≥ and ≤ were set here for values at or beyond the usual limits of such assays
HLA-A*02:01 [4] = assay: as above
HLA-A*03:01 [5] = assay: as above
HLA-A*11:01 = assay: as above
HLA-A*26:01 = assay: as above
HLA-A*31:01 = assay: as above
HLA-A*69:01 = assay: as above
HLA-B*07:02 = assay: as above
HLA-B*08:01 = assay: as above
HLA-B*15:01 = assay: as above
HLA-B*27:05 = assay: as above
HLA-B*40:01 [6] = assay: as above
HLA-B*44:02 [7] = assay: as above
HLA-B*58:01 = assay: as above
HLA-A*02:01 [8] = assay: IEDB peptide-MHC binding, purified MHC/competitive/fluorescence; ≥ and ≤ were set here for values at or beyond the usual limits of such assays
HLA-A*24:03 = assay: IEDB peptide-MHC binding, purified MHC/direct/fluorescence; filed as Kd, often an IC50 or EC50 that approximates it; ≥ and ≤ were set here for values at or beyond the usual limits of such assays; conditions: source organism: Vibrio cholerae
[9] = source organism: Vaccinia virus
[10] = source organism: SARS coronavirus Tor2
[11] = source organism: Coxiella burnetii
[12] = source organism: Sudan ebolavirus
[13] = source organism: Lassa virus Josiah
[14] = source organism: Vibrio cholerae
[15] = source organism: Mammarenavirus whitewaterense
[16] = source organism: Zaire ebolavirus
[17] = source organism: Mammarenavirus brazilense

Sequence: KVYTMDGEY
Kd (HLA-A*03:01 [1]; source organism: West Nile virus): 0.0376 µM

Sequence: KYNTPCPNC
IC50 (HLA-A*24:02; [9]): 35.5 µM

Sequence: LTVAWRTATL
Kd (HLA-A*68:02; source organism: Dengue virus 3 Martinique/1243/1999): 0.0324 µM

Sequence: MVAWRVTMH
Kd (HLA-A*03:01 [1]; source organism: Toxoplasma gondii): 0.0481 µM

Sequence: PEANMDQESF
Kd (HLA-B*18:01; [10]): ≥ 53.2 µM
Kd (HLA-B*40:01 [2]; [10]): 4.2 µM
Kd (HLA-B*40:02; [10]): 10.1 µM
Kd (HLA-B*44:02 [3]; [10]): 7.54 µM
Kd (HLA-B*44:03; [10]): 10.6 µM
Kd (HLA-B*45:01; [10]): ≥ 26 µM

Sequence: PEIRRWIIF
Kd (HLA-A*01:01; [11]): ≥ 20 µM
Kd (HLA-A*02:01 [4]; [11]): ≥ 20 µM
Kd (HLA-A*03:01 [5]; [11]): ≥ 20 µM
Kd (HLA-A*11:01; [11]): ≥ 20 µM
Kd (HLA-A*26:01; [11]): ≥ 20 µM
Kd (HLA-A*31:01; [11]): ≥ 20 µM
Kd (HLA-A*69:01; [11]): ≥ 20 µM
Kd (HLA-B*07:02; [11]): ≥ 20 µM
Kd (HLA-B*08:01; [11]): ≥ 20 µM
Kd (HLA-B*15:01; [11]): ≥ 20 µM
Kd (HLA-B*27:05; [11]): ≥ 20 µM
Kd (HLA-B*40:01 [6]; [11]): 5.64 µM
Kd (HLA-B*44:02 [7]; [11]): ≥ 20 µM
Kd (HLA-B*58:01; [11]): ≥ 20 µM

Sequence: PTLTTPENI
IC50 (HLA-A*02:01 [8]; [12]): ≥ 269 µM
IC50 (HLA-A*24:02; [12]): 53.7 µM

Sequence: QLAFFVAGH
Kd (HLA-A*03:01 [1]; source organism: Yersinia pestis Antiqua): 0.199 µM

Sequence: QVMLLVLCV
Kd (HLA-A*68:02; source organism: Dengue virus 2 Peru/IQT2913/1996): 0.143 µM

Sequence: REPTDLKQF
Kd (HLA-B*18:01; [13]): ≥ 55.4 µM
Kd (HLA-B*40:01 [2]; [13]): 2.88 µM
Kd (HLA-B*40:02; [13]): 1 µM
Kd (HLA-B*44:02 [3]; [13]): 1.51 µM
Kd (HLA-B*44:03; [13]): 8.46 µM
Kd (HLA-B*45:01; [13]): ≥ 77.7 µM

Kd (HLA-A*68:02; source organism: Homo sapiens): ≥ 125 µM
Sequence: RLQQELDDL

Sequence: RLSVKTFVH
Kd (HLA-A*03:01 [1]; source organism: Coxiella burnetii RSA 493): 0.0276 µM

Sequence: RLSVKTFVK
Kd (HLA-A*03:01 [1]; source organism: Francisella tularensis subsp. tularensis FSC198): 0.0253 µM

Sequence: RYDYANLCQ
Kd (HLA-A*01:01; [14]): ≥ 20 µM
Kd (HLA-A*02:01 [4]; [14]): ≥ 20 µM
Kd (HLA-A*03:01 [5]; [14]): ≥ 20 µM
Kd (HLA-A*11:01; [14]): ≥ 20 µM
Kd (HLA-A*24:03): ≥ 20 µM
Kd (HLA-A*26:01; [14]): ≥ 20 µM
Kd (HLA-A*31:01; [14]): ≥ 20 µM
Kd (HLA-A*69:01; [14]): ≥ 20 µM
Kd (HLA-B*07:02; [14]): ≥ 20 µM
Kd (HLA-B*08:01; [14]): ≥ 20 µM
Kd (HLA-B*15:01; [14]): ≥ 20 µM
Kd (HLA-B*27:05; [14]): ≥ 20 µM
Kd (HLA-B*40:01 [6]; [14]): ≥ 20 µM
Kd (HLA-B*44:02 [7]; [14]): ≥ 20 µM
Kd (HLA-B*58:01; [14]): ≥ 20 µM

Sequence: SDHLISEIL
Kd (HLA-B*18:01; [15]): ≥ 77.5 µM
Kd (HLA-B*40:01 [2]; [15]): 8.52 µM
Kd (HLA-B*40:02; [15]): 0.0831 µM
Kd (HLA-B*44:02 [3]; [15]): 9.12 µM
Kd (HLA-B*44:03; [15]): ≥ 78.1 µM
Kd (HLA-B*45:01; [15]): 1.66 µM

Sequence: SEFDRDAAM
Kd (HLA-B*18:01; [10]): 2.51 µM
Kd (HLA-B*40:01 [2]; [10]): 0.21 µM
Kd (HLA-B*40:02; [10]): 1.01 µM
Kd (HLA-B*44:02 [3]; [10]): 0.745 µM
Kd (HLA-B*44:03; [10]): 0.532 µM
Kd (HLA-B*45:01; [10]): 18.3 µM

Sequence: SYRNKPSIA
IC50 (HLA-A*24:02; [9]): 43.8 µM

Sequence: TLATISTSP
IC50 (HLA-A*02:01 [8]; [16]): 29.7 µM
IC50 (HLA-A*24:02; [16]): ≥ 88.9 µM

Sequence: TLYDRYLIK
Kd (HLA-A*03:01 [1]; source organism: Campylobacter lari RM2100): 0.0109 µM

Sequence: TTGRLIWTL
IC50 (HLA-A*02:01 [8]; [12]): 2 µM
IC50 (HLA-A*24:02; [12]): 0.309 µM

Sequence: VYKLDISEA
IC50 (HLA-A*24:02; [16]): 44 µM

Sequence: YEAMYTPHT
Kd (HLA-B*18:01; [10]): 2.8 µM
Kd (HLA-B*40:01 [2]; [10]): 14.4 µM
Kd (HLA-B*40:02; [10]): 0.242 µM
Kd (HLA-B*44:02 [3]; [10]): ≥ 21.8 µM
Kd (HLA-B*44:03; [10]): 13 µM
Kd (HLA-B*45:01; [10]): 0.149 µM

Sequence: YEQQTVNST
Kd (HLA-B*18:01; [17]): 1.13 µM
Kd (HLA-B*40:01 [2]; [17]): ≥ 54.2 µM
Kd (HLA-B*40:02; [17]): 0.0783 µM
Kd (HLA-B*44:02 [3]; [17]): ≥ 34.1 µM
Kd (HLA-B*44:03; [17]): ≥ 78.1 µM
Kd (HLA-B*45:01; [17]): 1.21 µM

Sequence: YHFDPVHHL
Kd (HLA-A*01:01; [11]): ≥ 20 µM
Kd (HLA-A*02:01 [4]; [11]): ≥ 20 µM
Kd (HLA-A*03:01 [5]; [11]): ≥ 20 µM
Kd (HLA-A*11:01; [11]): ≥ 20 µM
Kd (HLA-A*26:01; [11]): ≥ 20 µM
Kd (HLA-A*31:01; [11]): ≥ 20 µM
Kd (HLA-A*69:01; [11]): ≥ 20 µM
Kd (HLA-B*07:02; [11]): ≥ 20 µM
Kd (HLA-B*08:01; [11]): ≥ 20 µM
Kd (HLA-B*15:01; [11]): ≥ 20 µM
Kd (HLA-B*27:05; [11]): ≥ 20 µM
Kd (HLA-B*40:01 [6]; [11]): ≥ 20 µM
Kd (HLA-B*44:02 [7]; [11]): ≥ 20 µM
Kd (HLA-B*58:01; [11]): ≥ 20 µM
